Data on two substances can be found in paper doi:10.1101/2020.01.18.911131.

This test concerns the target taxol-stabilized microtubules (porcine brain tubulin) (porcine) (UniProt P02550). As to the kind of experiment: co-sedimentation.

The term Kd denotes the free concentration of one partner at which half of the binding sites on the other are occupied at equilibrium, for simple one-to-one binding. A lower Kd goes with higher affinity. The substance “chick Fmn2 FH2FSI (1148th-1587th aa) (from UniProt A0A1B2VWD2 1148-1587) (domain or fragment)” displayed a dissociation constant (Kd) of 1.6 µM.

Regarding “chick Fmn2 FH2_ΔFSI (1148th-1563rd aa) (from UniProt A0A1B2VWD2 1148-1563) (domain or fragment)”, the Kd amounted to 18.6 µM.
